Measurements reported in the DeepSol protein solubility set.

Experiment: soluble on expression in E. coli; label from the status in PepcDB or PDB records

Sequence | soluble on expression in E. coli
MGSSHHHHHHSSGLVPRSHMEQLEEDCVHRYGVNAFVLYRLPVVKEGMVVGIVGPNGTGKSTAVKILAGQLIPNLCGDNDSWDGVIRAFRGNELQNYFEKLKNGEIRPVVKPQYVDLIPKAVKGKVIELLKKADETGKLEEVVKALELENVLEREIQHLSGGELQRVAIAAALLRNATFYFFDEPSSYLDIRQRLNAARAIRRLSEEGKSVLVVEHDLAVLDYLSDIIHVVYGEPGVYGIFSQPKGTRNGINEFLRGYLKDENVRFRPYEIKFTKTGERVEIERETLVTYPRLVKDYGSFRLEVEPGEIKKGEVIGIVGPNGIGKTTFVKMLAGVEEPTEGKIEWDLTVAYKPQYIKADYEGTVYELLSKIDASKLNSNFYKTELLKPLGIIDLYDREVNELSGGELQRVAIAATLLRDADIYLLDEPSAYLDVEQRLAVSRAIRHLMEKNEKTALVVEHDVLMIDYVSDRLMVFEGEPGKYGRALPPMGMREGMNRFLASIGITFRRDPDTGRPRANKEGSVKDREQKEKGEYYYIA | soluble
NDAIPTIFIHGYRGTDRSLHGMIRRFDQKYNWGTESLTVNVSPDGSISTTGTYSKNEKNPLINIVFEDNRATLPQQSMWTKKIMSYLQKNYDIKKFNAIGHSMGGGAWVSYLASYEKNKSYPQVNKIVFLAVPFYPEEYVNGDQQVDIKNANNVHAKFAQKMAKVLPDNTEIMIIGGDLEDGSNSDGEVKLNSVLYGQKLFAHQKVITHVIKGPKATHSSMHESTVVDKYVGQFLWG | not soluble
MIGGLFIYNHKGEVLISRVYRDDIGRNAVDAFRVNVIHARQQVRSPVTNIARTSFFHVKRSNIWLAAVTKQNVNAAMVFEFLYKMCDVMAAYFGKISEENIKNNFVLIYELLDEILDFGYPQNSETGALKTFITQQGIKSQHQTKEEQSQITSQVTGQIGWRREGIKYRRNELFLDVLESVNLLMSPQGQVLSAHVSGRVVMKSYLSGMPECKFGMNDKIVIEKQGKGTADETSKSGKQSIAIDDCTFHQCVRLSKFDSERSISFIPPDGEFELMRYRTTKDIILPFRVIPLVREVGRTKLEVKVVIKSNFKPSLLAQKIEVRIPTPLNTSGVQVICMKGKAKYKASENAIVWKIKRMAGMKESQISAEIELLPTNDKKKWARPPISMNFEVPFAPSGLKVRYLKVFEPKLNYSDHDVIKWVRYIGRSGIYETRC | soluble
MGSDKIHHHHHHACNTSPREPKAMEANDGSVTTVESNGNKLTVCDLSAVKDTIEVPLSEFVEDCRIVRFETSEEAYFKAWFINATDKHIGIRQGNQDVFKLFDRDGKFLYNVGSVGSGPGEYDTTLYDECIDEKNGHIFFTPFVGKRIMMYDINGQWIKDIPLPMQINKAKIWVNEDGSLSVVHMPFEEGEPLAFRVDTEGNILNQIPATAATKVMNFDGEVFSYRNCGDFDFFHTGIDTLFTYDPAGNKLLPKFTMTFPNMNEKPIHLYYRLPHHFIVTYWGNKGEGGGDVLVDTEKNASSYFRLVNDFYGNLPIPAPGHSFYRGYFIQSLEPGQLIEKIEKQIASGKCSGQDEQKLKELAATLTENDNNVLFIGKVKK | not soluble
MGSPLPFRLTCVWAGEPSMKKAIIFDCEFLCLEGSQRRFWCAAHDPDPVIAQIGAVKLGLEGGFPLLETYKVLISPVDRHGRRYAIDPFFTRLTGITEENIEAEGVPLQDALSSFDSFSEGAQCWSWGKDELNMMAISTYVAGIQPPMPACRFDNAVRLLLAAGMPVEDLAKTPSNSLADYYGVAHPPLQGHDALGDALSVSYALQHLLRSGKLKPEEFTLAAAAALEHHHHHH | not soluble
MGSDKIHHHHHHMKNKIGSFVIADPNKCTGCRACEVACFTMHNQHNNVGYTVGTVDIPVIPRLYLVKGDNFCMPIQCRHCEDAPCLNSCPQKAIVKENNIMSVNEEKCIGCKTCLLACPFGAIDLLPQYEDGKEVEQVILDENKKIAYKCDLCKDNEKIACISACPQKALKLVTPIDDKKAKNRQAALSLLLTNK | not soluble
MSLTNVAEDQLTAQAVAPPTEASAALEPALETPESPVETLKTSISASRRVRARLARRMTAQRSTTNPVLEPLVAVHREIYPKADLSILQRAYEVADQRHASQLRQSGDPYITHPLAVANILAELGMDTTTLVAALLHDTVEDTGYTLEALTEEFGEEVGHLVDGVTKLDRVVLGSAAEGETIRKMITAMARDPRVLVIKVADRLHNMRTMRFLPPEKQARKARETLEVIAPLAHRLGMASVKWELEDLSFAILHPKKYEEIVRLVAGRAPSRDTYLAKVRAEIVNTLTASKIKATVEGRPKHYWSIYQKMIVKGRDFDDIHDLVGVRILCDEIRDCYAAVGVVHSLWQPMAGRFKDYIAQPRYGVYQSLHTTVVGPEGKPLEVQIRTRDMHRTAEYGIAAHWRYKEAKGRNGVLHPHAAAEIDDMAWMRQLLDWQREAADPGEFLESLRYDLAVQEIFVFTPKGDVITLPTGSTPVDFAYAVHTEVGHRCIGARVNGRLVALERKLENGEVVEVFTSKAPNAGPSRDWQQFVVSPRAKTKIRQWFAKERREEALETGKDAMAREVRRGGLPLQRLVNGESMAAVARELHYADVSALYTAIGEGHVSAKHVVQRLLAELGGIDQAEEELAERSTPATMPRRPRSTDDVGVSVPGAPGVLTKLAKCCTPVPGDVIMGFVTRGGGVSVHRTDCTNAASLQQQAERIIEVLWAPSPSSVFLVAIQVEALDRHRLLSDVTRALADEKVNILSASVTTSGDRVAISRFTFEMGDPKHLGHLLNAVRNVEGVYDVYRVTSEGHHHHHH | not soluble
MAHHHHHHMGTLEAQTQGPGSMNLDDIGSGSNAPEEVNVVIEVSQDSHPVKYEFDEKNGALWVDRFLPTAMYYPCNYGFIPNTIAGDGDPVDVLVLARFPVMPGAVICVRPVGVLMMNDEKGEDAKVLAVPATKVDQYYGNIVNYSDLPSSFLDSISHFFSFYKKLEKDKFVSVGCWQDAASAKELIRSAIIAAKKGEN | soluble
SDESDLPSAMPAVPAFGVEERNMVSGVLTLAERSIRSIMTPRTDVSWVNIDDDAATIRQQLTAAPHSFFPVCRGSLDEVVGIGRAKDLVADLITEGRVRRNRLRDPIIVHESIGILRLMDTLKRSRGQLVLVADEFGAIEGLVTPIDVFEAIAGEFPDEDELPDIVAESE | soluble
RGRGAAAWRILRCRRLPEPSPFLTQPNLAQSQPPAPVPVTDPSVTMHPAVFLSLPDLRCSLLLLVTWVFTPVTTEITSLDTENIDEILNNADVALVNFYADWCRFSQMLHPIFEEASDVIKEEFPNENQVVFARVDCDQHSDIAQRYRISKYPTLKLFRNGMMMKREYRGQRSVKALADYIRQQKSDPIQEIRDLAEITTLDRSKRNIIGYFEQKDSDNYRVFERVANILHDDCAFLSAFGDVSKPERYSGDNIIYKPPGHSAPDMVYLGAMTNFDVTYNWIQDKCVPLVREITFENGEELTEEGLPFLILFHMKEDTESLEIFQNEVARQLISEKGTINFLHADCDKFRHPLLHIQKTPADCPVIAIDSFRHMYVFGDFKDVLIPGKLKQFVFDLHSGKLHREFHHGPDPTDTAPGEQAQDVASSPPESSFQKLAPSEYRYTLLRDRDEL | soluble
MSLDEILKQEMQKELTTRILPYWMERMVDQENGGFYGRITGQEELMPRADKGAILNARILWTYSAAYRLLGREEYKEMANRAKRYLIDHFYDSEFGGVYWSLNYRGEPLDTKKQIYAIGFAIYGLSEFHRATGDPEALMYAVRLFNDIESHSFDGLKNGYCEALTREWNEIADMRLSEKDANERKTMNTHLHILEPYTNLYRVWKDARLERQLYNLIGLFTEKILDKDTSHLQLFFDNDWQSKYPVVSYGHDIEASWLLHEAARVLGDAGLIAEIEPVVKKIAAAASEGLTSDGGMIYEKNLTTGHIDGDYHWWVQAETVVGYYNLFRYFGDRGALQHSIDCWEFIKRHLTDDVHGEWFWSLRADGSLNRDDDKAGFWKCPYHNGRMCIELLGEGHHHHHH | soluble
MTRTYAMVGTPCQITAATLMDRYTEDFPVELKLGLFCMENFSYTYLKKLAEEEGIDLADVSELRIEKGRLWFHLNDGSKVSVSLERARAAMRKNCSVCMDFTSEQSDISIGSVGSPEGWSTIIIRTERGHELIEKARKAGYIETKPLTERGIRILEKLASGKKEDNLQEIKRRESVARPVLYWRVMPDEEYLEEVTDYQFDDLRSDVIDVGACVLCGACVASCPEDIVSIKDRKPEVEGTCPEGCNACYVACPRTYVPDSIIGHDSAITPLGEYIEILSARAPMFRGQDGGVVTALLTYALREGIIDGALVVDRDQERPWKPLPVLAEEPQDIVKAAGTKYSACPLLKVLKELEHHHHHH | soluble
